Data as given in patent US8741840B2, “BMP-7 for use in treating neointimal hyperplasia” (Washington University, priority 2008, dated 2014).

Legend:
[1] = system: AV anastomosis NH lesion in mice; assay: Neointimal hyperplasia lesion formation at arteriovenous fistula anastomosis in CKD and sham mice; type: in vivo, mouse
From the text: Six weeks after creation of CKD and sham mice as described above, animals underwent an AV fistula creation by anastomosing the left common carotid artery to the jugular vein in an end-to-side fashion. Under a sterile condition, a vertical incision was made in the left neck with the left common carotid artery and the adjacent external jugular vein carefully dissected out. The common carotid artery clamp was placed at the proximal portion with an 11-0 nylon suture and the common carotid artery was divided just proximal to the bifurcation. Next, the jugular vein was clamped proximally and distally and punctured in the middle portion with a 27 G syringe. After filling this vein segment with heparinized saline, the venotomy of 0.7 mm in length was performed. […]
Three weeks after AV fistula creation, animals were euthanized, and the AV anastomoses were perfusion-fixed via the left ventricle at 100 mm Hg pressure as described previously (Leidenfrost J E, et al., Am J Pathol. 2003; 163(2):773-778).^53 Before perfusion fixation, blood was drawn from the left ventricle for the biochemical analysis. Blood urea nitrogen (BUN), phosphorus, and calcium were measured by autoanalyzer techniques in the Animal Facility Clinical Laboratory at Washington University in St. Louis, Mo. […]

[2] = system: hVSMC; assay: RT-PCR of osteoblastic differentiation program genes in hVSMC; type: cell-based, human
Method: Cell Culture: Human adult aorta were obtained from seven cadaveric organ donors rejected because of atherosclerosis by Mid-America Transplant Services (St. Louis, Mo.) and enzymatically digested to obtain Human Smooth Muscle Cells (HSMC). Medial tissue was separated from the adventia and intima and digested with collagenase type I (Worthington, Lakewood, N.J.) 2 mg/ml for 1 hr, and washed with Hank's balanced salt solution (HBSS). Further digestion followed with collagenase type II 1 mg/ml (Worthington, Lakewood, N.J.) and elastase 0.25 mg/ml (Worthington, Lakewood, N.J.) for 4 hrs. Cell suspensions were washed twice with HBSS and cultured in T-75 flasks for three weeks in a 95%/5% air/CO2 humidified environment at 37° C. The growth medium used was DMEM containing […] glucose (high glucose), 10% fetal bovine serum (FBS, Atlas, Fort Collins, Colo.), 1 mM sodium pyruvate, 100 units/ml Penicillin and […] Streptomycin (Sigma, St Louis, Mo.). Cell purity was assessed by positive immunostaining for α-smooth muscle actin and calponin and for the absence of von Willebrand factor. In all experimental protocols, cells were seeded at 1×10^5 cells/well in six-well plates. Medium was changed on the first day and every third day thereafter. In all cases, cells used were between passages two and five (Table 3).
RT-PCR: RNA was extracted from cell cultures using RNeasy Mini Kits (Qiagen, Valencia, Calif.). Semi-quantitative RT-PCR was conducted using Roche 1st Strand cDNA Synthesis Kit (Indianapolis, Ind.) and PCR kit from Invitrogen (Grand Island, N.Y.) according to manufacturer's instructions using a two-step method. 1 μg of total RNA was reverse transcribed and random primers were added for 60 min at 42° C., prior to PCR. Forward and Reverse primers (Table 4) were added and the reactions subjected to PCR for 20-35 cycles. The number of cycles necessary to amplify cDNA but remain within the exponential amplification range was determined for each primer set. GAPDH was used as internal standard to assess loading. Genomic contamination was assessed by heat inactivation of the reverse transcriptase prior to RT-PCR. Primers were designed using Vector NTI soft ware (Invitrogen, Grand Island, N.Y.) and optimal conditions for each prime pairs were determined (Table 4). A Perkin-Elmer DNA Thermal Cycler was used to perform the reaction. Products were separated on a 2% agarose E-gel (Invitrogen, Grand Island, N.Y.), and visualized with ethidium bromide. The band intensity was analyzed first by scanning the gel on a Typhoon 9410 gel imager (Amersham Biosciences), quantified by using TotalLab software v2003.03 (Nonlinear Dynamics, Durham, N.C.) and normalized for loading by comparison to GAPGH. Negative controls were performed by inactivating the reverse transcriptase by boiling for 5 min prior to RT-PCR to insure that genomic DNA was not amplified.
Stimulation of osteoblastic differentiation through osterix induction. […] Osterix (E) was only weakly expressed in basal culture conditions. Phosphorus stimulated transcription of osterix (E). […] The data in A-E were normalized to the expression level in basal culture conditions and expressed as fold induction, mean±SEM, n=3. In: Principles of Bone Biology, edited by Bilezikian J P et al., New York, Academic Press, 1996, pp 51-67; Hoffmann H M et al., Proc. Nat. […]

B1: BMP-7: bone morphogenetic protein-7 (osteogenic protein-1), mineralization-countering morphogen; provided by Johnson and Johnson (protein, listed as Homo sapiens)
chain: STGSKQRSQNRSKTPKNQEALRMANVAENSSSDQRQACKKHELYVSFRDLGWQDWIIAPEGYAAYYCEGECAFPLNSYMNATNHAIVQTLVHFINPETVPKPCCAPTQLNAISVLYFDDSSNVILKKYRNMVVRACGCH
Which results are given for B1?
NH lesion formation induced by CKD ([1]; CKD animals, BMP-7 100 μg/kg intraperitoneally twice a week, P<0.01 (FIG. 12)): eliminated the stimulation of NH lesion formation induced by CKD; NH lesion development ([1]; sham operated animals, BMP-7 100 μg/kg intraperitoneally twice a week (FIG. 12)): no effect; osteocalcin expression ([2]; 2 mM phosphorus plus 10 ng/ml BMP-7 (FIG. 5A)): inhibited osterix and osteocalcin expression; BMP-2 expression ([2]; 2 mM phosphorus plus 10 ng/ml BMP-7 (FIG. 5B)): failed to affect expression; RUNX2 expression ([2]; 2 mM phosphorus plus 10 ng/ml BMP-7 (FIG. 5D)): failed to affect expression; osterix expression ([2]; 2 mM phosphorus plus 10 ng/ml BMP-7 (FIG. 5E)): strongly inhibited osterix expression
